In PMC5559640:

Test system: Pho7 DBD, Pho7(279-368) (Schizosaccharomyces pombe)
Assay: EMSA
Conditions: EMSA: 50 mM Tris-HCl pH 7.4, 10% glycerol, 340 ng poly(dI-dC), 0.6-1 pmol DNA in 10 ul, about 50 mM NaCl and 0.02% Triton X-100 from 2 ul protein diluent …; for binding signal: 27 ng Pho7 DBD, 1 pmol DNA

Row | Sequence | binding signal [% DNA bound] | also measured
1 | TTTCCTTCGGACATTCTTATCAGT (double strand) [tgp1 24-bp Mut3 (AA to TT)] | 23 | –
2 | TTTCCTTCGGACAAACAAATCAGT (double strand) [tgp1 24-bp Mut2 (TT to AA)] | 45 | –
3 | CAACAGGGGAATAGTCGCTGCTTGAAACATCCGGAAATAG (double strand) [pho1 site 1 40-bp DNA] | – | binding signal (fold affinity vs site 2 (N5)) (8.3-66 ng Pho7 DBD): 0.5
4 | CCGGAAATAGTTTTATTCGGAAATTAAAAACAAGTTTATGGCG (double strand) [pho1 site 2 43-bp DNA] | – | binding signal (fold affinity vs site 1 (N4)) (8.3-66 ng Pho7 DBD): 2
5 | TTTCCTTCGGACATTCAAATCAGT (double strand) [tgp1 24-bp WT] | 81 | –
